According to the supplement of paper PMC7877785:
± gives the uncertainty stated by the source.

Assay: self-splicing fitness, log relative to wild type (ln ratio); higher = more splicing; Tetrahymena group I intron in knt gene, E. coli kanamycin selection, DiMSum; sequences stand for … in CUCUCU…GGAGGGAAAAGUUAUCAGGCAUGCACCUGGUAGCUAGUCUUUAAACCAAUAGAUUGCAUCGGUUUAAAAGGCAAGACCGUCAAAUUGCGGGAAAGGGGUCAACAGCCGUUCAGUACCAAGUCUCAGGGGAAACUUUGAGAUGGCCUUGCAAAGGGUAUGGUAAUAAGCUGACGGACAUGGUCCUAACCACGCAGCCAAGUCCUAAGUCAACAGAUCUUCUGUUGAUAUGGAUGCAGUUCACAGACUAAAUGUCGGUCGGGGAAGAUGUAUUCUUCUCAUAAGAUAUAGUCGGACCUCUCCUUAAUGGGAGCUAGCGGAUGAAGUGAUGCAACACUGGAGCCGCUGGGAACUAAUUUGUAUGCGAAAGUAUAUUGAUUAGUUUUGGAGUACUCGUGGUCG
Outline: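 Library with all eight P1ex-region intron nucleotides randomised, intron inside the knt kanamycin-resistance gene on pET-22b(+), in E. coli BL21(DE3). Cells grew overnight at 37°C or 30°C on LB agar with or without 25 μg/mL kanamycin (plus 100 μg/mL carbenicillin, 50 μM IPTG, 0.2% rhamnose), in six replicate transformations. Pooled colonies were amplicon-sequenced on Illumina HiSeq 2500. DiMSum fitness is the error-weighted combination of wild-type-normalised replicate fold changes, kanamycin versus none.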

Sequence	self-splicing fitness (ln) (30 °C)	self-splicing fitness (ln) (37 °C)
GCGAAGCAAUAUUACGACCG	-1.66 ± 0.25	-0.671 ± 0.21
GCGAAGCAAUAUUACGAGAA	-2.63 ± 0.46	-1.38 ± 0.26
GCGAAGCAAUAUUACGAUUG	-2.92 ± 0.097	-1.64 ± 0.096
GCGAAGCAAUAUUACGCAUU	-2.56 ± 0.17	-2.15 ± 0.19
GCGAAGCAAUAUUACGCCAU		-2.48 ± 0.36
GCGAAGCAAUAUUACGCCGU	-3.41 ± 0.35	-1.81 ± 0.29
GCGAAGCAAUAUUACGCUUU	-2.27 ± 0.19	-2.03 ± 0.4
GCGAAGCAAUAUUACGGACG	-0.0597 ± 0.13	-0.969 ± 0.2
GCGAAGCAAUAUUACGGAGU	-3.66 ± 0.2	-3.43 ± 0.42
GCGAAGCAAUAUUACGGAUA	-1.76 ± 0.12	-0.933 ± 0.12
GCGAAGCAAUAUUACGGGGG	-2.43 ± 0.24	-2.48 ± 0.34
GCGAAGCAAUAUUACGGUCA	-1.7 ± 0.11	-1.36 ± 0.1
GCGAAGCAAUAUUACGUAAA	-1.85 ± 0.16	-2.12 ± 0.23
GCGAAGCAAUAUUACGUAAC	-2.64 ± 0.14	-1.44 ± 0.16
GCGAAGCAAUAUUACGUACU	-0.436 ± 0.073	0.194 ± 0.09
GCGAAGCAAUAUUACGUAUA	-2.18 ± 0.29	0.188 ± 0.43
GCGAAGCAAUAUUACGUCUC	-2.04 ± 0.12	-1.41 ± 0.14
GCGAAGCAAUAUUACGUGAA	-2.3 ± 0.14	-0.526 ± 0.14
GCGAAGCAAUAUUACGUGGA	-1.9 ± 0.13	-2.88 ± 0.21
GCGAAGCAAUAUUACGUUCA	-1.03 ± 0.13	-0.809 ± 0.16
GCGAAGCAAUAUUACGUUCU	-1.93 ± 0.11	-0.859 ± 0.11
GCGAAGCAAUAUUACGUUGG	-4.02 ± 0.17	-2.97 ± 0.18
GCGAAGCAAUAUUACGUUUU	-3.16 ± 0.12	-2.5 ± 0.17
GCGCAGCAAUAUUACGAAUC	0.348 ± 0.15	-0.0791 ± 0.13
GCGCAGCAAUAUUACGAAUU	-1.64 ± 0.14	-0.932 ± 0.22

Sequence	self-splicing fitness (ln) (30 °C)	self-splicing fitness (ln) (37 °C)
GCGCAGCAAUAUUACGAUAA	-1.85 ± 0.11	-0.604 ± 0.14
GCGCAGCAAUAUUACGAUAU	-1.18 ± 0.078	-0.433 ± 0.1
GCGCAGCAAUAUUACGCAGA	-3.32 ± 0.22	-2.5 ± 0.24
GCGCAGCAAUAUUACGCGCG	-3.1 ± 0.32	
GCGCAGCAAUAUUACGCGGG	-2.93 ± 0.1	-1.37 ± 0.097
GCGCAGCAAUAUUACGCGUC	-3.41 ± 0.16	-2.41 ± 0.2
GCGCAGCAAUAUUACGCGUU	-2.99 ± 0.14	-2.06 ± 0.15
GCGCAGCAAUAUUACGCUCG	-3.65 ± 0.38	-2.89 ± 0.34
GCGCAGCAAUAUUACGCUCU	-3.21 ± 0.28	-1.29 ± 0.23
GCGCAGCAAUAUUACGCUUG	-2.57 ± 0.12	-1.06 ± 0.12
GCGCAGCAAUAUUACGGACG	-2.17 ± 0.13	-0.91 ± 0.15
GCGCAGCAAUAUUACGGCCC	-1.21 ± 0.14	0.349 ± 0.24
GCGCAGCAAUAUUACGGGAA	-1.92 ± 0.086	-0.883 ± 0.066
GCGCAGCAAUAUUACGGGAG	-3.14 ± 0.18	-1.39 ± 0.13
GCGCAGCAAUAUUACGGUAG	-3.4 ± 0.15	-1.88 ± 0.14
GCGCAGCAAUAUUACGGUCU	-0.494 ± 0.075	0.0551 ± 0.095
GCGCAGCAAUAUUACGGUGU	-2.83 ± 0.14	-2.47 ± 0.17
GCGCAGCAAUAUUACGUAAG	-0.982 ± 0.066	-0.943 ± 0.1
GCGCAGCAAUAUUACGUAGU	-0.438 ± 0.06	0.18 ± 0.076
GCGCAGCAAUAUUACGUAUU	-0.596 ± 0.081	-0.709 ± 0.099
GCGCAGCAAUAUUACGUGUA	-0.699 ± 0.071	-0.0774 ± 0.077
GCGCAGCAAUAUUACGUGUU	-1.06 ± 0.075	-0.857 ± 0.092
GCGGAGCAAUAUUACGAAGC	-2.45 ± 0.23	-2.13 ± 0.4
GCGGAGCAAUAUUACGAGUA	-3.21 ± 0.21	-1.82 ± 0.15
GCGGAGCAAUAUUACGCCUU		-2.17 ± 0.49

Sequence	self-splicing fitness (ln) (30 °C)	self-splicing fitness (ln) (37 °C)
GCGGAGCAAUAUUACGCGGA	-2.07 ± 0.33	
GCGGAGCAAUAUUACGCUCC		-0.469 ± 0.39
GCGGAGCAAUAUUACGGAAU	-2.29 ± 0.21	-3.42 ± 0.35
GCGGAGCAAUAUUACGGAUA	-2.53 ± 0.33	-1.26 ± 0.25
GCGGAGCAAUAUUACGGGAA	-2.13 ± 0.27	-2.23 ± 0.35
GCGGAGCAAUAUUACGGGAG	-2.36 ± 0.42	-0.916 ± 0.48
GCGGAGCAAUAUUACGGGCA		-1.1 ± 0.47
GCGGAGCAAUAUUACGGGUA	-4.43 ± 0.42	-1.72 ± 0.2
GCGGAGCAAUAUUACGGUCG	-3.61 ± 0.26	-2.41 ± 0.21
GCGGAGCAAUAUUACGUAUU	-3.85 ± 0.25	-2.48 ± 0.41
GCGUAGCAAUAUUACGAAGA	-1.89 ± 0.21	-1.51 ± 0.24
GCGUAGCAAUAUUACGAAGC	-3.48 ± 0.3	-1.67 ± 0.47
GCGUAGCAAUAUUACGAAUG	-1.32 ± 0.11	-0.603 ± 0.13
GCGUAGCAAUAUUACGACAG	-2.66 ± 0.48	-0.456 ± 0.44
GCGUAGCAAUAUUACGACUU	-0.421 ± 0.11	0.154 ± 0.15
GCGUAGCAAUAUUACGAGAG	-3.3 ± 0.28	-3.27 ± 0.33
GCGUAGCAAUAUUACGAGGU	-2.81 ± 0.36	-2.62 ± 0.36
GCGUAGCAAUAUUACGCAGU	-4.05 ± 0.34	-2.28 ± 0.25
GCGUAGCAAUAUUACGCAUU	-2.88 ± 0.2	-2.58 ± 0.27
GCGUAGCAAUAUUACGCCUG	-4.08 ± 0.42	-3.13 ± 0.37
GCGUAGCAAUAUUACGCGCG	-3.2 ± 0.26	-2.42 ± 0.31
GCGUAGCAAUAUUACGCUAU	-4.42 ± 0.42	-2.46 ± 0.45
GCGUAGCAAUAUUACGCUCU	-3 ± 0.46	-1.59 ± 0.27
GCGUAGCAAUAUUACGGAAA	-3.29 ± 0.37	-0.0155 ± 0.18
GCGUAGCAAUAUUACGGAGU	-2.88 ± 0.16	-1.44 ± 0.14

Sequence	self-splicing fitness (ln) (30 °C)	self-splicing fitness (ln) (37 °C)
GCGUAGCAAUAUUACGGAUU	-1.59 ± 0.13	-0.574 ± 0.15
GCGUAGCAAUAUUACGGCCU	-0.557 ± 0.16	-0.113 ± 0.25
GCGUAGCAAUAUUACGUACU	-2.08 ± 0.15	-0.552 ± 0.17
GCGUAGCAAUAUUACGUCCA	-1.49 ± 0.099	-0.365 ± 0.1
GCGUAGCAAUAUUACGUCCC	-0.245 ± 0.24	
GCGUAGCAAUAUUACGUGGG	-3.84 ± 0.22	-3.04 ± 0.24
GCGUAGCAAUAUUACGUUAA	-2.13 ± 0.23	-1.74 ± 0.2
GCGUAGCAAUAUUACGUUUC	-4.29 ± 0.34	-1.83 ± 0.22
GCGUAGCAAUAUUACGUUUU	-3.15 ± 0.14	-1.8 ± 0.13
GCUAAGCAAUAUUACGAGGA	-1.73 ± 0.11	-0.693 ± 0.12
GCUAAGCAAUAUUACGCAAC	-2.35 ± 0.42	-0.352 ± 0.47
GCUAAGCAAUAUUACGCAUA	-1.97 ± 0.11	-1.5 ± 0.093
GCUAAGCAAUAUUACGCCUG	-0.523 ± 0.16	-1.55 ± 0.22
GCUAAGCAAUAUUACGGAUU	-1.14 ± 0.068	-1.12 ± 0.092
GCUAAGCAAUAUUACGGGCA	-1.52 ± 0.098	-1.11 ± 0.13
GCUAAGCAAUAUUACGGUAG	-3.12 ± 0.21	-3.35 ± 0.3
GCUAAGCAAUAUUACGGUCU	-0.772 ± 0.083	-1.06 ± 0.085
GCUAAGCAAUAUUACGUAAU	-0.775 ± 0.088	-0.189 ± 0.11
GCUAAGCAAUAUUACGUCGA	-1.21 ± 0.11	-0.619 ± 0.15
GCUAAGCAAUAUUACGUUUA	-2.9 ± 0.24	-1.69 ± 0.21
GCUAAGCAAUAUUACGUUUG	-2.16 ± 0.09	-0.954 ± 0.12
GCUCAGCAAUAUUACGAACA	-0.688 ± 0.088	-0.676 ± 0.1
